# ± gives the standard deviation of the averaged measurements.
# Test system: ATP
# Test: switch fluorescence ratio, 500 uM ATP over buffer (Cy3 cluster intensity, sum of 5 cycles each) (fold (ratio)); higher = stronger signal-on switching upon ATP binding; sequences stand for … in TCGTCGGCAGCGTCAGATGTGTATAAGAGACAGTTTTTTTTTTTTTTTTTTTTTTTTT…TC
# Settings: aptamer strand: ATP DNA aptamer (quencher-CACCTGGGGGAGTATTGCGGAGGAAGG + anchor), 100 nM annealed; ATP concentration: 500 uM
# Outline: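 Imaging in selection buffer was followed by imaging after 15 min with 500 uM ATP at 22 °C, for Cy3-labelled switching-strand clusters annealed to 100 nM quencher-labelled ATP aptamer on a modified Illumina MiSeq flow-cell. Five of these buffer/ATP cycles ran, separated by NaOH stripping and re-annealing. The fluorescence ratio per cluster is summed target-cycle over summed buffer-cycle Cy3 intensity, averaged per switch-domain sequence; clusters outside 100-1000 RFU were removed.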
# 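Also: ATP exposure 15 min at 22 °C before imaging.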
row,Sequence,switch fluorescence ratio
1,TCGCCGAAAT,1.7 ± 0.35
2,CGTGCGGCGT,0.9829 ± 0.0026
3,TTGGCGTAAG,1.03 ± 0.045
4,CTCAGGCTTG,0.997 ± 0.052
5,TGGGGGTTCC,1.01 ± 0.025
6,CACTAGTGGG,1 ± 0.0024
7,CGTAGGTAAT,1.01 ± 0.04
8,CCCCGGCTGG,1.125 ± 0.005
9,AAGTTCGTGC,1.02 ± 0.058
10,GAACTTGGGA,0.983 ± 0.058
11,GTTTATATGT,1.01 ± 0.049
12,CAGTCTACGA,1.03 ± 0.015
13,GGGGGGGCTA,0.9868 ± 0.0035
14,GGCCTGGACG,1.05 ± 0.015
15,TAGAAATTTG,0.998 ± 0.03
16,GACGGGAAAA,1.07 ± 0.14
17,CCGTAATAGG,4.83 ± 0.55
18,TTAAATCATT,1.014 ± 0.0099
19,ATTTTTTTAG,0.988 ± 0.02
20,TTTGGTATTT,0.984 ± 0.025
21,ACGAGCGTGG,1 ± 0.011
22,AGCGTCTGGG,1.0291 ± 0.00058
23,CGGGCGAATT,0.982 ± 0.014
24,TTTCAAGTAC,1.49 ± 0.21
25,GAATACTTGG,1.04 ± 0.054

row,Sequence,switch fluorescence ratio
1,GGTTTAAGCA,0.982 ± 0.034
2,ATTCTAGGTA,1 ± 0.015
3,ACCAAAGGCT,1.03 ± 0.04
4,GCAAGATGAT,1.17 ± 0.17
5,TAGTAGTTAT,0.9858 ± 0.0052
6,CCTGTTACTT,0.97 ± 0.04
7,AGGGGGAGGA,1.01 ± 0.04
8,ATTTTCATAT,0.98 ± 0.021
9,GAACTGATAA,1.16 ± 0.2
10,TTTAGTGACA,0.9978 ± 0.0036
11,CGGTATATGG,0.962 ± 0.013
12,AGGTCAAGAA,1.07 ± 0.079
13,GGAGGGAGTG,0.98 ± 0.025
14,GTTATCGGAC,1.01 ± 0.015
15,AATTTAAAGT,0.951 ± 0.052
16,GCAAACGCAG,1.05 ± 0.032
17,GGGGGATATG,0.984 ± 0.027
18,AGTCAAGGGT,1 ± 0.0014
19,TCGTATTGTG,0.975 ± 0.032
20,AATAAAGGGT,1.02 ± 0.027
21,GGGATGCCAA,0.9794 ± 0.0018
22,ATGAATCGTC,0.9927 ± 0.0037
23,GCGTGTTAGT,1.023 ± 0.0021
24,TACGGTTTTT,0.967 ± 0.019
25,AGATGGGGTA,0.9705 ± 0.0077

row,Sequence,switch fluorescence ratio
1,TTACCGGGCA,1.033 ± 0.0093
2,TGGTGGACGT,0.997 ± 0.039
3,TTGGAATGGT,1.04 ± 0.029
4,TCGATGTTGG,0.984 ± 0.03
5,GCCCGCCCGC,1.38 ± 0.18
6,TTTTGCGCTC,1 ± 0.027
7,TCAGTATTTT,1.018 ± 0.0047
8,CAAATTCGTC,1.07 ± 0.015
9,TTTGATTCAG,1.04 ± 0.071
10,GGTGGACCGA,0.984 ± 0.083
11,GGGGAGATGT,1.01 ± 0.014
12,TTGCTTGGGC,1.02 ± 0.04
13,TTGTAGAAAA,1.3 ± 0.37
14,ACGATCATTT,1.048 ± 0.0024
15,TCATGAACAT,1.001 ± 0.0082
16,GCTATTGGAA,0.993 ± 0.022
17,CCTCTACG,1.41 ± 0.044
18,GGGAGTAGGG,0.998 ± 0.015
19,CGCTAAAGCC,1.156 ± 0.003
20,AAATCACGGA,1.44 ± 0.23
21,CTGTGCTAGG,1.01 ± 0.011
22,GATGTTTACT,1.0047 ± 0.00016
23,AGAGTCTTTT,0.9934 ± 0.0016
24,TGTGTTTGGG,0.987 ± 0.038
25,TGGAGAAAGT,1.03 ± 0.067

row,Sequence,switch fluorescence ratio
1,GCTCTCTTTT,0.9805 ± 0.0037
2,CATATGGGGT,1 ± 0.038
3,TAAGAGTAAT,0.985 ± 0.042
4,GGCAATTCTC,3.9 ± 0.31
5,TATGGGCCGG,1.07 ± 0.018
6,CAGACTCGGT,1.02 ± 0.024
7,TTTTGCGAGG,1.03 ± 0.014
8,TTGAGGGGGC,1.01 ± 0.05
9,GGCAGGATAT,1.016 ± 0.0056
10,ATGGTATTTG,0.998 ± 0.037
11,AGCATAGAGG,1.03 ± 0.03
12,CTCTGTATGT,1.035 ± 0.0081
13,AAAAGGGAGT,0.972 ± 0.013
14,CCGTATATCC,2.44 ± 0.16
15,TGGTATTTTA,0.982 ± 0.028
16,AAGATAGTGT,0.9936 ± 0.0057
17,TAAAGAAAGC,0.9755 ± 0.0029
18,GGGTATTTGT,1 ± 0.03
19,TAGTAGACTG,1.01 ± 0.05
20,CGGTCGCTGG,0.991 ± 0.026
21,ATAGATCCTT,0.9996 ± 0.0087
22,GGGAAGGGTG,1.08 ± 0.089
23,CAACATCTAT,1.02 ± 0.053
24,CCGGGATTGA,1.083 ± 0.0038
25,TTCAGGGGGA,1.02 ± 0.023
